Drawing on publication PMC4616025, “Identification of a phosphinothricin-resistant mutant of rice glutamine synthetase using DNA shuffling” (Scientific Reports, 2015), this text covers Km for three proteins.

Substrate in the series: N[C@@H](CCC(=O)O)C(=O)O
Description: purified protein. The class given is biochemical, Oryza sativa. Particulars: general assay: 5 mM ATP, 30 mM hydroxylamine, 50 mM MgCl2, 100 mM Tris-HCl pH 7.5, 37 °C, Km measured as in a cited method.

Changes are numbered by the printed parent chain. Names and notes keep the numbering of the source.

B1: OsGS1S (Oryza sativa Japonica Group) (protein)
chain: MASLTDLVNLNLSDTTEKIIAEYIWIGGSGMDLRSKARTLSGPVTDPSKLPKWNYDGSSTGQAPGEDSEVILYPQAIFKDPFRKGNNILVMCDCYTPAGEPIPTNKRHNAAKIFSSPEVASEEPWYGIEQEYTLLQKDINWPLGWPVGGFPGPQGPYYCGIGADKSFGRDIVDSHYKACLYAGINISGINGEVMPGQWEFQVGPSVGISAGDQVWVARYILERITEIAGVVVSFDPKPIPGDWNGAGAHTNYSTKSMRNDGGYEIIKSAIEKLKLRHKEHISAYGEGNERRLTGRHETADINTFSWGVANRGASVRVGRETEQNGKGYFEDRRPASNMDPYIVTSMIAETTIIWKP
notes: full-length, plant-codon-optimized synthetic gene (PTDS), vector pYM4087 with six-histidine tag, expressed in E. coli BL21(DE3), Ni-NTA purified; forward primer atggcttctctcaccga
One may read the Km as the substrate concentration at which the rate is half of its maximum. As for B1, the Km is 1.22 ± 0.011 mM.

B2: OsGS1S (Oryza sativa Japonica Group; A63E/R295K/T293A/V193A) (protein)
chain: B1 chain with A63E, V193A, T293A, R295K
notes: as for B1
As to B2, under “stated gain”, the Km came to 7.99 ± 0.021 mM.

B3: OsGS1S (Oryza sativa Japonica Group; R295K) (protein)
chain: B1 chain with R295K
notes: as for B1
As to B3, the Michaelis-Menten constant (Km) (stated gain) was determined as 8.04 ± 0.015 mM.
